Laboratory results from patent US20230381229A1 (ALPINE IMMUNE SCIENCES, INC., published 2023).
Changes are numbered by the printed parent chain. Numbers in names are those of the source.

T1: TIGIT (human)
T1 chain: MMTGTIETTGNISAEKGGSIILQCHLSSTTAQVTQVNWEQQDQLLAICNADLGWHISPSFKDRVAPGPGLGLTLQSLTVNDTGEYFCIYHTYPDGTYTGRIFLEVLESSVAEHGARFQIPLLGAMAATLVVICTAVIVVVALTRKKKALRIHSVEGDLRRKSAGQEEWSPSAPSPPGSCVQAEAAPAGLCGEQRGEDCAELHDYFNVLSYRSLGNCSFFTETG

B1: variant CD155 IgV-Fc V9A, P18F, T61S, Q62L, L79P, F91S, G111R (Fc fusion)
chain: WPPPGTGDAVVQAPTQVFGFLGDSVTLPCYLQVPNMEVTHVSQLTWARHGESGSMAVFHQSLGPSYSESKRLEFVAARPGAELRNASLRMSGLRVEDEGNYTCLFVTFPQRSRSVDIWLRVLGSGGGGSEPKSSDKTHTCPPCPAPEAEGAPSVFLFPPKPKDTLMISRTPEVTCVVVDVSHEDPEVKFNWYVDGVEVHNAKTKPREEQYNSTYRVVSVLTVLHQDWLNGKEYKCKVSNKALPAPIEKTISKAKGQPREPQVYTLPPSRDELTKNQVSLTCLVKGFYPSDIAVEWESNGQPENNYKTTPPVLDSDGSFFLYSKLTVDKSRWQQGNVFSCSVMHEALHNHYTQKSLSLSPGK
B2: variant CD155 IgV-Fc P18S, H59N, V75A, L79P, A81T, F91S, L104M, T107M (Fc fusion)
chain: B1 chain with A9V, F18S, H59N, S61T, L62Q, V75A, A81T, L104M, T107M, R111G
B3: variant CD155 IgV-Fc P18S, W46R, E68D, L79P, F91S, T107M, R113G (Fc fusion)
chain: B1 chain with A9V, F18S, W46R, S61T, L62Q, E68D, T107M, R111G, R113G
B4: variant CD155 IgV-Fc P18S, V41A, H49R, S54C, L79S, N85Y, L88P, F91S, L104M, T107M (Fc fusion)
chain: WPPPGTGDVVVQAPTQVSGFLGDSVTLPCYLQVPNMEVTHASQLTWARRGESGCMAVFHQTQGPSYSESKRLEFVAARSGAELRYASPRMSGLRVEDEGNYTCMFVMFPQGSRSVDIWLRVLGSGGGGSEPKSSDKTHTCPPCPAPEAEGAPSVFLFPPKPKDTLMISRTPEVTCVVVDVSHEDPEVKFNWYVDGVEVHNAKTKPREEQYNSTYRVVSVLTVLHQDWLNGKEYKCKVSNKALPAPIEKTISKAKGQPREPQVYTLPPSRDELTKNQVSLTCLVKGFYPSDIAVEWESNGQPENNYKTTPPVLDSDGSFFLYSKLTVDKSRWQQGNVFSCSVMHEALHNHYTQKSLSLSPGK
B5: variant CD155 IgV-Fc V9L, P18Y, V25A, V38G, M55V, A77T, L79P, M90I, F91S, L104M (Fc fusion)
chain: WPPPGTGDLVVQAPTQVYGFLGDSATLPCYLQVPNMEGTHVSQLTWARHGESGSVAVFHQTQGPSYSESKRLEFVATRPGAELRNASLRISGLRVEDEGNYTCMFVTFPQGSRSVDIWLRVLGSGGGGSEPKSSDKTHTCPPCPAPEAEGAPSVFLFPPKPKDTLMISRTPEVTCVVVDVSHEDPEVKFNWYVDGVEVHNAKTKPREEQYNSTYRVVSVLTVLHQDWLNGKEYKCKVSNKALPAPIEKTISKAKGQPREPQVYTLPPSRDELTKNQVSLTCLVKGFYPSDIAVEWESNGQPENNYKTTPPVLDSDGSFFLYSKLTVDKSRWQQGNVFSCSVMHEALHNHYTQKSLSLSPGK
B6: variant CD155 IgV-Fc P18T, M55L, T61R, L79P, F91S, V106I, T107M (Fc fusion)
chain: B1 chain with A9V, F18T, M55L, S61R, L62Q, V106I, T107M, R111G
B7: variant CD155 IgV-Fc V9I, P18T, H49R, L79P, N85D, F91S, L104T, T107M (Fc fusion)
chain: B4 chain with V9I, S18T, A41V, C54S, S79P, Y85D, P88L, M104T
B8: variant CD155 IgV-Fc V11A, P18T, N35S, L79P, S87T, F91S (Fc fusion)
chain: B1 chain with A9V, V11A, F18T, N35S, S61T, L62Q, S87T, R111G
B9: variant CD155 IgV-Fc T15I, P18S, V33M, N35F, T39S, M55L, R78S, L79P, F91S, T107M (Fc fusion)
chain: WPPPGTGDVVVQAPIQVSGFLGDSVTLPCYLQMPFMEVSHVSQLTWARHGESGSLAVFHQTQGPSYSESKRLEFVAASPGAELRNASLRMSGLRVEDEGNYTCLFVMFPQGSRSVDIWLRVLGSGGGGSEPKSSDKTHTCPPCPAPEAEGAPSVFLFPPKPKDTLMISRTPEVTCVVVDVSHEDPEVKFNWYVDGVEVHNAKTKPREEQYNSTYRVVSVLTVLHQDWLNGKEYKCKVSNKALPAPIEKTISKAKGQPREPQVYTLPPSRDELTKNQVSLTCLVKGFYPSDIAVEWESNGQPENNYKTTPPVLDSDGSFFLYSKLTVDKSRWQQGNVFSCSVMHEALHNHYTQKSLSLSPGK
B10: variant CD155 IgV-Fc P18S, Q62K, K70E, L79P, F91S, G92E, R113W (Fc fusion)
chain: B1 chain with A9V, F18S, S61T, L62K, K70E, G92E, R111G, R113W
B11: variant CD155 IgV-Fc V11E, P18H, F20Y, V25E, N35S, H49R, L79P, F91S, T107M, G111R (Fc fusion)
chain: B1 chain with A9V, V11E, F18H, F20Y, V25E, N35S, H49R, S61T, L62Q, T107M
B12: variant CD155 IgV-Fc V9L, P18F, T45A, S65A, S67V, R78K, L79V, F91S, T107M, S114T (Fc fusion)
chain: WPPPGTGDLVVQAPTQVFGFLGDSVTLPCYLQVPNMEVTHVSQLAWARHGESGSMAVFHQTQGPAYVESKRLEFVAAKVGAELRNASLRMSGLRVEDEGNYTCLFVMFPQGSRTVDIWLRVLGSGGGGSEPKSSDKTHTCPPCPAPEAEGAPSVFLFPPKPKDTLMISRTPEVTCVVVDVSHEDPEVKFNWYVDGVEVHNAKTKPREEQYNSTYRVVSVLTVLHQDWLNGKEYKCKVSNKALPAPIEKTISKAKGQPREPQVYTLPPSRDELTKNQVSLTCLVKGFYPSDIAVEWESNGQPENNYKTTPPVLDSDGSFFLYSKLTVDKSRWQQGNVFSCSVMHEALHNHYTQKSLSLSPGK
B13: variant CD155 IgV-Fc P18S, D23G, C29R, N35D, E37G, M55I, Q62K, S65A, S67G, R78G, L79P, F91S, L104M, T107M, Q110R (Fc fusion)
chain: WPPPGTGDVVVQAPTQVSGFLGGSVTLPRYLQVPDMGVTHVSQLTWARHGESGSIAVFHQTKGPAYGESKRLEFVAAGPGAELRNASLRMSGLRVEDEGNYTCMFVMFPRGSRSVDIWLRVLGSGGGGSEPKSSDKTHTCPPCPAPEAEGAPSVFLFPPKPKDTLMISRTPEVTCVVVDVSHEDPEVKFNWYVDGVEVHNAKTKPREEQYNSTYRVVSVLTVLHQDWLNGKEYKCKVSNKALPAPIEKTISKAKGQPREPQVYTLPPSRDELTKNQVSLTCLVKGFYPSDIAVEWESNGQPENNYKTTPPVLDSDGSFFLYSKLTVDKSRWQQGNVFSCSVMHEALHNHYTQKSLSLSPGK
B14: variant CD155 IgV-Fc P18T, S52A, V57A, Q60R, Q62K, S65C, L79P, F91T, N100Y, T107M (Fc fusion)
chain: WPPPGTGDVVVQAPTQVTGFLGDSVTLPCYLQVPNMEVTHVSQLTWARHGEAGSMAAFHRTKGPCYSESKRLEFVAARPGAELRNASLRMTGLRVEDEGYYTCLFVMFPQGSRSVDIWLRVLGSGGGGSEPKSSDKTHTCPPCPAPEAEGAPSVFLFPPKPKDTLMISRTPEVTCVVVDVSHEDPEVKFNWYVDGVEVHNAKTKPREEQYNSTYRVVSVLTVLHQDWLNGKEYKCKVSNKALPAPIEKTISKAKGQPREPQVYTLPPSRDELTKNQVSLTCLVKGFYPSDIAVEWESNGQPENNYKTTPPVLDSDGSFFLYSKLTVDKSRWQQGNVFSCSVMHEALHNHYTQKSLSLSPGK
B15: variant CD155 IgV-Fc P18S, A47G, L79P, F91S, L104M, T107A, R113W (Fc fusion)
chain: B1 chain with A9V, F18S, A47G, S61T, L62Q, L104M, T107A, R111G, R113W
B16: variant CD155 IgV-Fc P18T, S52P, S65A, S67V, L79P, F91S, L104M, G111R (Fc fusion)
chain: B1 chain with A9V, F18T, S52P, S61T, L62Q, S65A, S67V, L104M
B17: variant CD155 IgV-Fc V11A, P18S, L79P, F91S, L104M, G111R (Fc fusion)
chain: B1 chain with A9V, V11A, F18S, S61T, L62Q, L104M
B18: variant CD155 IgV-Fc P18T, D23G, S24A, N35D, H49L, L79P, F91S, L104M, G111R (Fc fusion)
chain: B1 chain with A9V, F18T, D23G, S24A, N35D, H49L, S61T, L62Q, L104M
B19: variant CD155 IgV-Fc V9L, P18S, Q60R, V75L, L79P, R89K, F91S, L104E, G111R (Fc fusion)
chain: B1 chain with A9L, F18S, Q60R, S61T, L62Q, V75L, R89K, L104E
B20: variant CD155 IgV-Fc P18T, M36T, L79P, F91S, G111R (Fc fusion)
chain: B1 chain with A9V, F18T, M36T, S61T, L62Q
B21: variant CD155 IgV-Fc V11A, P18S, S54R, Q60P, Q62K, L79P, N85D, F91S, T107M (Fc fusion)
chain: B1 chain with A9V, V11A, F18S, S54R, Q60P, S61T, L62K, N85D, T107M, R111G

Target: T1, TIGIT
Assay: cell-based or functional assay

IL-2 luciferase reporter, Normalized Fold Change from CD155-ECD | Binder
1.3 fold | B1
3.5 fold | B2
0.9 fold | B3
-1 fold | B4
1.2 fold | B5
4.5 fold | B6
4 fold | B7
2.1 fold | B8
1.3 fold | B9
2 fold | B10
-0.6 fold | B11
6 fold | B12
1.2 fold | B13
2.1 fold | B14

Target: T1, TIGIT
Assay: cell-based or functional assay
Remark: another data set of the same source

IL-2 luciferase reporter, Normalized Fold Change from CD155-ECD, proteins at 50 nM | Binder
5 fold | B15
3.6 fold | B16
0.4 fold | B17
3.2 fold | B18
1.8 fold | B19
4.1 fold | B20
2.6 fold | B21
